The test system of the test is Bovine MAC-T mammary gland epithelial cells. The test is described as follows: Colostrum-SAA production by MAC-T cells stimulated with prolactin (ELISA of growth media). The test is classed as cell-based. As to the method:
Bovine MAC-T mammary gland epithelial cells were obtained from ATCC (CRL-10274) and cultured according to recommended conditions (Turner, J D and Huynh H. Immortalized bovine mammary epithelial cell line. U.S. Pat. No. 5,227,301 dated Jul. 13, 1993). MAC-T cells were cultured on Dulbecco's Modified Eagles Media (DMEM) supplemented with 10% Fetal Calf Serum (FCS), 5 μg/ml insulin, 1μg/ml hydrocortisone and fungizone. Cells were incubated at 37° C. with 5% CO2. For colostrum-SAA production the cells were seeded onto type I Collagen coated plates. After 14 hours of incubation, the cells were washed twice with Dulbecco's phosphate buffered saline (DPBS) and incubated in media (DMEM, 5 μg/ml insulin, 1 μg/ml hydrocortisone and 2.5% FCS) supplemented with prolactin from sheep pituitary gland (5 μg/ml) for the stimulation of colostrum-SAA production. Approximately one half of the media was replaced daily with fresh prolactin supplemented media. Standard ELISA for the quantitation of SAA was used to assay aliquots of the growth media collected on the different days for the presence of colostrum-SAA.
Cells were kept in culture for 41 days in media supplemented with prolactin. Levels of colostrum-SAA production reached a maximum of almost 3000 ng/ml.
(ELISA stands for enzyme-linked immunosorbent assay.)

B1: prolactin: prolactin from sheep pituitary gland (protein, UniProt P01240 31-229, looked up)
Prolactin: TPVCPNGPGNCQVSLRDLFDRAVMVSHYIHNLSSEMFNEFDKRYAQGKGFITMALNSCHTSSLPTPEDKEQAQQTHHEVLMSLILGLLRSWNDPLYHLVTEVRGMKGVPDAILSRAIEIEEENKRLLEGMEMIFGQVIPGAKETEPYPVWSGLPSLQTKDEDARHSAFYNLLHCLRRDSSKIDTYLKLLNCRIIYNNNC
In the case of B1, under “media supplemented with prolactin 5 μg/ml, 41 days in culture, collagen coated plates”, the “maximum level of colostrum-SAA production” value was around 3000 ng/mL. Besides, the “day by which measurable quantities of colostrum-SAA could be detected” value (prolactin at 5 μg/ml, MAC T cells, 13 days of stimulation (FIG. 2)) is at most 1 days.

The record behind these values is patent US20050107315A1, “Mammary-associated serum amuloid a3 promoter sequences and used for same” (Board of Regents of the University of Nebraska, priority 2001, published 2005).
